Measurements: the supplement of paper PMC10567573
± gives the standard deviation.

Assay: protein stability index of a GFP-peptide fusion (GPS, HEK-293T) (PSI 1-6); higher = more stable
[1] = treatment: DMSO, c terminus: a fixed tail appended
[2] = treatment: MLN4924 1 uM, 8 h, c terminus: a fixed tail appended
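Also: 24-mer peptide tiles fused after GFP, lentivirally expressed, FACS-sorted into six equal bins by GFP/DsRed ratio, decoded by Illumina sequencing, PSI is the read-weighted mean bin number.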

Row | Sequence | protein stability index [1] | protein stability index [2] | protein stability index (treatment: DMSO, c terminus: native) | protein stability index (treatment: MLN4924 1 uM, 8 h, c terminus: native)
1 | GEREAIQKSVTRSCLLEEEEESGE [POP5] | 5.53 ± 0.33 | 5.65 ± 0.18 |  | 
2 | SRQLLPGDEFSLREHELLCRADHG [ISL2] | 4.19 ± 0.17 | 4.27 ± 0.089 |  | 
3 | ELGEEPQPRDEEEAELELLRQFDL [POLD4] | 5.41 ± 0.26 | 5.51 ± 0.3 |  | 
4 | HNGDMEKILLDAQHESGQSSSRGS [BNIP3L] | 5.18 ± 0.17 | 5.32 ± 0.3 |  | 
5 | ARRESGGRPIKPPKKDLEDGEVPQ [BRD3] | 5.58 ± 0.21 | 5.38 ± 0.32 |  | 
6 | KKEKIIEDKTFGLKNKKGAKQQKF [ZC3H15] | 4.5 ± 0.27 | 4.33 ± 0.19 |  | 
7 | MGHCCCKPYNCLQCLDKTNESALV [MTUS2] | 3.28 ± 0.3 | 3.4 ± 0.34 |  | 
8 | MDPPNPEEVKTPEEEMRSHYVAQT [GAGE1] | 5.44 ± 0.087 | 5.4 ± 0.2 |  | 
9 | QARLEEQQRLAHLEDKLRLLAQAR [LRRC45] | 3.37 ± 0.61 | 3.32 ± 0.35 |  | 
10 | IGMSAAGMGLTGTMGMGMPNIAMT [CLINT1] | 2.62 ± 0.079 | 2.56 ± 0.13 |  | 
11 | NYLIFSQKPEFQDLSVEERSFVEK [RHOBTB3] | 3.61 ± 0.16 | 3.69 ± 0.27 |  | 
12 | SSGKNVTLLVCGKKAYDYFQAKKI [PDZK1] | 2.13 ± 0.26 | 2.57 ± 0.82 |  | 
13 | TDFKDKIVLDVGCGSGILSFFAAQ [CARM1] | 2.3 ± 0.43 | 2.27 ± 0.27 |  | 
14 | MCKADLSRNFIERNHMENGGDHRY [TRIM29] | 3.41 ± 0.25 | 3.33 ± 0.26 |  | 
15 | MKKAKEQLKIRKSNQIPTEVRSKA [FUNDC2] | 4.59 ± 0.34 | 4.76 ± 0.45 |  | 
16 | GLAGLLPASYTAPIMSGQGLAGFF [SLC29A1] | 2.06 ± 0.25 | 2.1 ± 0.086 |  | 
17 | QASVSCALEALEPFWEVLVRSTET [HDAC6] | 2.64 ± 0.57 | 2.46 ± 1.1 |  | 
18 | SLKEEHRAYDLLRAASENSQDALR [IKZF1] | 4.32 ± 0.52 | 4.36 ± 0.34 |  | 
19 | DPKITCKQECLITTFQDVYFVSES [TPH1] | 2.5 ± 0.36 | 2.14 ± 0.49 |  | 
20 | KVSEGQADIMISFVRGDHRDNSPF [MMP1] | 3.1 ± 0.41 | 3.09 ± 0.52 |  | 
21 | FGGVIAFSSYNKQDNNCHFDAALV [SLC6A17] | 2.42 ± 0.32 | 2.43 ± 0.45 |  | 
22 | MVLAPVFGYLGDRYNRKYLMCGGI [SPNS1] | 2.61 ± 0.058 | 2.5 ± 0.84 |  | 
23 | QQPSKHRTDEELQPPTTTVARSGT [PLK2] | 5.47 ± 0.15 | 5.27 ± 0.1 |  | 

Row | Sequence | protein stability index [1] | protein stability index [2] | protein stability index (treatment: DMSO, c terminus: native) | protein stability index (treatment: MLN4924 1 uM, 8 h, c terminus: native)
24 | CWPMMDFLRCVTAALIYFAISITA [CMTM3] | 3.23 ± 0.49 | 3.34 ± 0.26 |  | 
25 | RDANGWTLLHFSAARGKERCVRVF [ASB7] | 2.29 ± 0.29 | 2.43 ± 0.43 |  | 
26 | PAADPPRYTFAPSVSLNKTARPFG [PDLIM7] | 3.54 ± 0.27 | 3.64 ± 0.35 |  | 
27 | QMAEKNRRDAETWFLSKTEELNKE [KRT16] | 5.02 ± 0.57 | 4.81 ± 0.35 |  | 
28 | AKGKVQAELSQPLTAGGAISELL [RBBP5] |  |  | 4.18 ± 0.3 | 3.91 ± 0.34
29 | APNAWQVIKGVLFRIFIIWAISSW [CLPTM1] | 2.94 ± 0.19 | 2.89 ± 0.53 |  | 
30 | WEQPWASEVFGPERMPPSGAARSF [PXN] | 3.73 ± 0.33 | 3.45 ± 0.11 |  | 
31 | NHWVPACHSFNRAIHKKAKGTEAE [FBXO34] | 4 ± 0.17 | 4.1 ± 0.12 |  | 
32 | QIVQLTQQVDTNISVILPTVHEVD [DENND6A] | 3.07 ± 0.35 | 3.3 ± 0.37 |  | 
33 | EMGGSEGIVESIQIMKEGKATASE [NETO1] | 5.58 ± 0.21 | 5.611 ± 0.038 |  | 
34 | AKMLLHEGQHPAQLRSDVCTPGGT [PYCR3] | 4.29 ± 0.5 | 4.58 ± 0.9 |  | 
35 | VVKRREGPAGHSKGELAPELGEEP [POLD4] | 5.46 ± 0.087 | 5.14 ± 0.36 |  | 
36 | MSQPRTPEQALDTPGDCPPGRRDE [TMEM175] | 5.38 ± 0.17 | 5.58 ± 0.19 |  | 
37 | ADIPQDQLVVMHPTPQVDELDILP [BTBD10] | 5.11 ± 0.17 | 5.24 ± 0.15 |  | 
38 | FRLPGLSRREREPEPPAAVDFLEP [FCHO1] | 4.24 ± 0.3 | 4.31 ± 0.33 |  | 
39 | EWASHTAALTNKHSQELTNEKEKA [SASS6] | 5.574 ± 0.002 | 5.39 ± 0.19 |  | 
40 | RAFAQIGPARSGFRLETLAGLRSR [MIR22HG] | 3.23 ± 0.53 | 3.2 ± 0.3 |  | 
41 | QSIEYAGQQDQVKLHDFFSYLMDH [PPEF2] | 2.94 ± 0.26 | 2.92 ± 0.49 |  | 
42 | FDVHPNELTNGVINAAFMLLFKDL [SNAP91] | 2.84 ± 0.81 | 2.24 ± 0.41 |  | 
43 | VRKKRFRKTQKKVPDVKEMEKSSF [TAF7L] | 4.1 ± 0.11 | 4.37 ± 0.19 |  | 
44 | QHKTCMLNATSKFMEFYQDVKDWW [EDNRA] | 2.6 ± 0.74 | 2.89 ± 0.36 |  | 
45 | SRVLQNGGDKLETMPLYLEDDIRP [SCD] | 4.66 ± 0.23 | 4.53 ± 0.21 |  | 
46 | ADGQRHHSKLLVSGFWGVARHFNY [DHCR7] | 2.27 ± 0.43 | 2.14 ± 0.27 |  | 

Row | Sequence | protein stability index [1] | protein stability index [2] | protein stability index (treatment: DMSO, c terminus: native) | protein stability index (treatment: MLN4924 1 uM, 8 h, c terminus: native)
47 | EERLERCMSIVTSMTAGVSEREAN [INTS3] | 4.84 ± 0.35 | 4.78 ± 0.29 |  | 
48 | GLLLGSHGLLGSPVRAAASSPVTT [CDC25B] | 2.74 ± 0.28 | 3.26 ± 0.31 |  | 
49 | QGFSYSKSNGRGGSQAGGSGSAGQ [MYOZ1] | 4.76 ± 0.18 | 5.02 ± 0.16 |  | 
50 | KERALSAPWLSLFPPEGNMEDKEM [ZNF263] | 4.82 ± 0.057 | 4.72 ± 0.18 |  | 
51 | KSERRNLLEDDSDEEEDFFLRGPS [VAMP4] | 5.09 ± 0.26 | 5.15 ± 0.66 |  | 
52 | SISKLSPFSEFFKLRFNRKKKGMY [PWWP2B] | 2.06 ± 0.25 | 2.31 ± 0.19 |  | 
53 | LVELLQPFKQVAEMLSASRYPTIS [ZBED1] | 2.65 ± 0.66 | 2.29 ± 0.57 |  | 
54 | LLLGLKDREGYTSFWNDCISSGLR [GOLPH3] | 2.43 ± 0.5 | 2.11 ± 0.23 |  | 
55 | LPAGAGAPKAGLEEAPAVTAGLKI [TNFSF13B] | 4.65 ± 0.3 | 4.65 ± 0.15 |  | 
56 | KLVRSPSGLRMVPEHRAFGSPFGL [ZFYVE21] | 2.32 ± 0.076 | 2.28 ± 0.22 |  | 
57 | LWPTPGHLSPLVVHRQLSHLYAEP [ESR2] | 2.38 ± 0.24 | 2.54 ± 0.3 |  | 
58 | SMNWGINLLISLTFLTVTDLIGLP [SLC2A12] | 3.3 ± 0.18 | 3.02 ± 0.12 |  | 
59 | LEHVRALIKKYSDHLENVSKLVES [TRIM55] | 3.02 ± 0.28 | 3.1 ± 0.17 |  | 
60 | MFFTCGPNEAMVVSGFCRSPPVMV [FLOT1] | 2.93 ± 0.52 | 2.9 ± 0.74 |  | 
61 | DEDDSEELEEDDGHGAEQAAAFPT [EHMT1] | 5.58 ± 0.27 | 5.7 ± 0.29 |  | 
62 | YQELLRVCCCELGVNPDQVEKIRK [ANKRD40] | 2.41 ± 0.51 | 2.55 ± 0.22 |  | 
63 | RTELLKDAIGEGKVTLRIRNVRFS [MOG] | 2.68 ± 0.4 | 2.79 ± 0.42 |  | 
64 | ALLDSLPPPVESELALFQMSVLWL [KLHL14] | 2.45 ± 0.23 | 2.03 ± 0.19 |  | 
65 | SAPYSAAFLELPHGSGGSGYPAAP [TBX6] | 3.27 ± 0.15 | 3.55 ± 0.27 |  | 
66 | SVILSVKFSPFGQWWASVGMDDFL [TLE6] | 3.22 ± 0.46 | 3.02 ± 0.49 |  | 
67 | LMMCFILPTLVPWYFWGETFQNSV [SCD] | 2.94 ± 0.69 | 3.24 ± 0.075 |  | 
68 | PVHIHPAFARQAAQEPSAVPRAGP [FOXJ1] | 4.45 ± 0.088 | 4.22 ± 0.15 |  | 
69 | EPGNFIPLFTPQSPVTATLSDEDD [CDC25A] | 5.56 ± 0.18 | 5.69 ± 0.13 |  | 

Row | Sequence | protein stability index [1] | protein stability index [2] | protein stability index (treatment: DMSO, c terminus: native) | protein stability index (treatment: MLN4924 1 uM, 8 h, c terminus: native)
70 | LASHLPVGVMLPHNTTEAPGPHSA [ZC2HC1C] | 4.3 ± 0.21 | 4.17 ± 0.21 |  | 
71 | SMSTRRLGVAVAVLGGFLYAVGGS [KLHL20] | 2.29 ± 0.42 | 2.67 ± 1.2 |  | 
72 | ASSPSIRQKKLMHKLQEEKAFREE [CCDC70] | 4.24 ± 0.17 | 4.66 ± 0.14 |  | 
73 | PKGRFERKRNPSRKKQHICDECGK [ZNF24] | 3.82 ± 0.49 |  |  | 
74 | LPCNPCATTNASGNSCGPCGTSQK [KRT34] | 4.71 ± 0.12 | 4.86 ± 0.23 |  | 
75 | TPEVAAAPKPDAAPSIDLFSTDAF [SNAP91] | 4.75 ± 0.23 | 4.75 ± 0.12 |  | 
76 | PMVLMIIVMCVQIKCFHEIITIGY [CDS2] | 3.01 ± 0.43 | 3.14 ± 0.66 |  | 
77 | IHGENIICEATQIIDYLEQTFLDE [GDAP1] | 2.82 ± 0.22 | 3.12 ± 0.21 |  | 
78 | DKVSDGVTKSPEKRSSLPRPSSIL [MAP2] | 4.88 ± 0.14 | 4.99 ± 0.26 |  | 
79 | ARDRQPSDFKTDKEGGQAGSGQRV [ELOA2] | 5.26 ± 0.33 | 5.26 ± 0.26 |  | 
80 | AKVKLVFVEDQAVVETVFFLTSRT [ZSWIM9] | 3.31 ± 0.38 | 3.01 ± 0.5 |  | 
81 | ELFYRVNYIGTKNVIETCKEAGVQ [NSDHL] | 2.14 ± 0.21 | 2.08 ± 0.54 |  | 
82 | RLQVKEHQHEEIQNVRNHIHSCFS [ATL3] | 3.21 ± 0.17 | 3.23 ± 0.21 |  | 
83 | FKRSVRRNLSYTCRANRNCPIDQH [NR2F2] | 2.71 ± 0.17 | 2.63 ± 0.33 |  | 
84 | HQVTVNESLLAPLNVELDPEIQKV [KRT71] | 4.73 ± 0.2 | 4.45 ± 0.15 |  | 
85 | PGHGGIMDRFDCQYLMATFVHVYI [CDS1] | 3.26 ± 0.46 | 3.1 ± 0.3 |  | 
86 | FQESASTPETRAKFTQDNLCRAQR [TEKT4] | 4.48 ± 0.18 | 4.4 ± 0.25 |  | 
87 | MVRFKHRYLLCELVSDDPRCRLSL [POP5] | 2.56 ± 0.38 | 2.55 ± 0.58 |  | 
88 | EGEPATQRQDPAAAQEGEDEGASA [GAGE1] | 5.55 ± 0.11 | 5.56 ± 0.26 |  | 
89 | ANSDRASIGRRRTELRRSGSSRSP [PLEKHN1] | 4.79 ± 0.3 | 5.2 ± 0.21 |  | 
